Each block holds one binder with its values, some of them ahead of it.
Columns and labels:
[1] = molecular target: T1, human 4-1BB (tumor necrosis factor receptor superfamily member 9) (human, UniProt Q07011 24-255); assay: flow cytometry (FACS) on CHO-K1/hu 4-1BB cells
T1 construct: whole, on cells; also called hu 4-1BB; CD137

[2] = molecular target: T2, human PD-L1 (programmed death ligand 1) (human, UniProt Q9NZQ7 19-290); assay: flow cytometry (FACS) on CHO-K1/hPDL1 cells, Experiment 1
T2 construct: whole, on cells; also called hPDL1; CD274

human BCMA [3] = molecular target: T3, human BCMA (human, UniProt Q02223 1-184); assay: FACS on HEK293T/hBCMA cells, Experiment 3
T3 construct: whole, on cells; also called hBCMA; TNFRSF17
T3 sequence (looked up): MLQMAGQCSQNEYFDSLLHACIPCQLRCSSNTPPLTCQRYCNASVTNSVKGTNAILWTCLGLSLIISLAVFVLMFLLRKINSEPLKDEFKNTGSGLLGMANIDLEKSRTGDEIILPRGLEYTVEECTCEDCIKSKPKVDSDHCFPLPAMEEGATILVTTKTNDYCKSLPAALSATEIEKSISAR

human BCMA [4] = molecular target: T3, human BCMA; assay: FACS on HEK293T/hBCMA cells, Experiment 2
human BCMA [5] = molecular target: T3, human BCMA; assay: FACS on NCI-H929 cells
[6] = molecular target: T4, human PD-L1-His protein (ACRO Biosystems, #PD1-H5229) (human, UniProt Q9NZQ7 19-238); assay: ELISA, coated hPD-L1-His
T4 construct: extracellular domain; bought; also called hPDL1-His; human PD-L1 extracellular domain recombinant protein

[7] = molecular target: T5, human PD-L1 on cells (CHO-K1/hPDL1; MDA-MB-231) (human, UniProt Q9NZQ7 19-290); assay: FACS, CHO-K1/hPDL1 cells (Experiment 1)
T5 construct: whole, on cells

[8] = molecular target: T5, human PD-L1 on cells (CHO-K1/hPDL1; …); assay: competition FACS: biotinylated PD-1 to CHO-K1/hPDL1 cells (Experiment 1)
[9] = molecular target: T5, human PD-L1 on cells (CHO-K1/hPDL1; …); assay: FACS, CHO-K1/hPDL1 cells (Experiment 2)
[10] = molecular target: T5, human PD-L1 on cells (CHO-K1/hPDL1; …); assay: competition FACS: biotinylated PD-1 to CHO-K1/hPDL1 cells (Experiment 2)
[11] = molecular target: T6, human CTLA4 on cells (CHO-K1/hCTLA4; HEK293/hCTLA4; 293F-hCTLA4) (human, UniProt P16410 36-223); assay: FACS, HEK293/hCTLA4 cells
T6 construct: whole, on cells

[12] = molecular target: T6, human CTLA4 on cells (CHO-K1/hCTLA4; …); assay: FACS, CHO-K1/hCTLA4 cells (Test 2)
cynomolgus monkey BCMA = molecular target: T7, cynomolgus monkey BCMA (cynomolgus monkey, UniProt A0A2K5UD97 1-183); assay: FACS on HEK293T/cyno BCMA cells
T7 construct: whole, on cells; also called cyno BCMA
T7 sequence (A0A2K5UD97 entry or part of it): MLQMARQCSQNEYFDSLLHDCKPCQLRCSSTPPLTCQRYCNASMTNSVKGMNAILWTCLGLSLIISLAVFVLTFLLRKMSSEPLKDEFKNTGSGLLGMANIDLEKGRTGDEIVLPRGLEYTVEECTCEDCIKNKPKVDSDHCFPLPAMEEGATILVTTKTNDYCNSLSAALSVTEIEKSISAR

T2 sequence (Q9NZQ7 19-290): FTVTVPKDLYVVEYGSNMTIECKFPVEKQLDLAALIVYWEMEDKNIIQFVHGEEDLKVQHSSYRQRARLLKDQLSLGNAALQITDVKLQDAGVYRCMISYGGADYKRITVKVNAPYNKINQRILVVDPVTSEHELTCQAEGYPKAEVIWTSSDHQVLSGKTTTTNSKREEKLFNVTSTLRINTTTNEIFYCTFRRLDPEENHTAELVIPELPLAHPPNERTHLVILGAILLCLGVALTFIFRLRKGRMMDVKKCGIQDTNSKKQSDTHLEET
T5 sequence (Q9NZQ7 19-290): as above
T1 sequence (Q07011 24-255): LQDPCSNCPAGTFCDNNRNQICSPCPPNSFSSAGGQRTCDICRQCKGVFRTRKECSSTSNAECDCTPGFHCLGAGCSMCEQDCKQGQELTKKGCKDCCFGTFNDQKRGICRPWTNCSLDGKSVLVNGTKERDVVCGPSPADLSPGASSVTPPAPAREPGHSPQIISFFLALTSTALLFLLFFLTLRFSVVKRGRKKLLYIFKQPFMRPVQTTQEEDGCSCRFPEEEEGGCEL
T6 sequence (P16410 36-223): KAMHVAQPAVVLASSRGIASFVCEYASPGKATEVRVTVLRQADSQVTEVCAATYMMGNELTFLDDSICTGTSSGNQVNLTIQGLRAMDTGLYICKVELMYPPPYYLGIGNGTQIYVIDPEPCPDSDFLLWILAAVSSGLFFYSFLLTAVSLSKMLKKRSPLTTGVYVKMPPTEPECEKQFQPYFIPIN
T4 sequence (Q9NZQ7 19-238): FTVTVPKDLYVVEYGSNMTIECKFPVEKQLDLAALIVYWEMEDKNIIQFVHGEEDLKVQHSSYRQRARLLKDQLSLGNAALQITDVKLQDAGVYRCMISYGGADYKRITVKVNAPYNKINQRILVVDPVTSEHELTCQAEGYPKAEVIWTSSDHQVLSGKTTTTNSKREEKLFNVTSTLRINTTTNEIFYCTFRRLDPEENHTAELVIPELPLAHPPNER

B1: PR003551, PD-L1×4-1BB bispecific antibody molecule of IgG-VH tetravalent symmetric structure (bispecific antibody)
light: DIQMTQSPSTLSASVGDRVTVTCRASQSIYIWLAWYQQKPGKAPNLLIYKASSLETGVPSRFSGSGSGTEFTLTISSLQPDDFATYYCQQYYGSSRTFGQGTKVEIKRTVAAPSVFIFPPSDEQLKSGTASVVCLLNNFYPREAKVQWKVDNALQSGNSQESVTEQDSKDSTYSLSSTLTLSKADYEKHKVYACEVTHQGLSSPVTKSFNRGEC
heavy: EVQLVESGGGLVQPGGSLRLSCAASGFTFSSYWMSWVRQAPGKGLEWVANIKQEGSEKYYVDSVKGRFTISRDNAKNSLYLQMNSLRAEDTAVYYCARDRAVAGAFDIWGQGTMVTVSSASTKGPSVFPLAPSSKSTSGGTAALGCLVKDYFPEPVTVSWNSGALTSGVHTFPAVLQSSGLYSLSSVVTVPSSSLGTQTYICNVNHKPSNTKVDKKVEPKSCDKTHTCPPCPAPEAAGGPSVFLFPPKPKDTLMISRTPEVTCVVVDVSHEDPEVKFNWYVDGVEVHNAKTKPREEQYNSTYRVVSVLTVLHQDWLNGKEYKCKVSNKALGAPIEKTISKAKGQPREPQVYTLPPSREEMTKNQVSLTCLVKGFYPSDIAVEWESNGQPENNYKTTPPVLDSDGSFFLYSKLTVDKSRWQQGNVFSCSVMHEALHNHYTQKSLSLSPGEPKSSDKTHTPPPPPRTEVQLLESGGGLVQPGGSLRLSCAASGFIFSNFAMTWVRQPPEKGLKWVSSINGSGFNTYYTDSVKGRFTISRDNSRNTLYLQMNRLTAEDTAVYFCAKEGSSETDDHYYNVDVWGQGTTVTVSS
notes: Structure 5; IgG PR000265, VH of PR001836 at C-terminus of heavy chain; linker H1_15-RT; human IgG1 (L234A, L235A, P329G)
- EC50 [1]: 3.15 nM
- Maximum MFI [1]: 1570 MFI
- EC50 [2]: 1.29 nM
- Maximum MFI [2]: 2150 MFI

- EC50 (human BCMA [3]): 0.602 nM
- Maximum MFI (human BCMA [3]): 117000
- EC50 (human BCMA [4]): 1.13 nM
- Maximum MFI (human BCMA [4]): 17000
- EC50 (human BCMA [5]): 4.29 nM
- Maximum MFI (human BCMA [5]): 88200
B2: PR002199 (bispecific antibody, human IgG1, kappa, L234A L235A)
chain 1: not shown
chain 2: EVQLVESGGGLVQPGRSLRLSCAASGFTFDDYAMHWVRQAPGKGLEWVSGISWNSGSIGYADSVKGRFTISRDNAKNSLYLQMNSLRAEDTALYYCAKDSRGYGDYRLGGAYWGQGTLVTVSSASTKGPSVFPLAPSSKSTSGGTAALGCLVKDYFPEPVTVSWNSGALTSGVHTFPAVLQSSGLYSLSSVVTVPSSSLGTQTYICNVNHKPSNTKVDKKVEPKSCDKTHTCPPCPAPEAAGGPSVFLFPPKPKDTLMISRTPEVTCVVVDVSHEDPEVKFNWYVDGVEVHNAKTKPREEQYNSTYRVVSVLTVLHQDWLNGKEYKCKVSNKALGAPIEKTISKAKGQPREPQVYTLPPCREEMTKNQVSLWCLVKGFYPSDIAVEWESNGQPENNYKTTPPVLDSDGSFFLYSKLTVDKSRWQQGNVFSCSVMHEALHNHYTQKSLSLSPGK
chain 3: EVQLLESGGGLVQPGGSLRLSCAASGFTVSSYGMSWVRQAPGKGPEWVSGIRGSDGSTYYADSVKGRFTISRDNSKNTLYLQMNSLRAEDTAVYYCAKQGENDGPFDHRGQGTLVTVSSGGGGSEVQLLESGGGLVQPGGSLRLSCAASGFTVSSYGMSWVRQAPGKGPEWVSGIRGSDGSTYYADSVKGRFTISRDNSKNTLYLQMNSLRAEDTAVYYCAKQGENDGPFDHRGQGTLVTVSSASEPKSSDKTHTCPPCPAPEAAGGPSVFLFPPKPKDTLMISRTPEVTCVVVDVSHEDPEVKFNWYVDGVEVHNAKTKPREEQYNSTYRVVSVLTVLHQDWLNGKEYKCKVSNKALGAPIEKTISKAKGQPREPQVCTLPPSREEMTKNQVSLSCAVKGFYPSDIAVEWESNGQPENNYKTTPPVLDSDGSFFLVSKLTVDKSRWQQGNVFSCSVMHEALHNHYTQKSLSLSPGK
notes: also called Positive control 2

- EC50 [6]: 0.146 nM
- Maximum OD450 [6]: 3.45 OD450
- EC50 [7]: 0.747 nM
- Maximum MFI [7]: 22700 MFI
- IC50 [8]: 0.725 nM
- Maximum inhibition rate (%) [8]: 96.8%
B3: PR000070, anti-PD-L1 91G3H5H3, hIgG1(N297A) (antibody, V domains shown)
VH: EVQLVESGGGLVQPGGSLRLSCAASGFTFSSYWMSWVRQAPGKGLEWVANIKQDGSEKYYVDSVKGRFTISRDNAKNSLYLQMNSLRAEDTAVYYCARDRAVAGAFDIWGQGTMVTVSS
VL: DIQMTQSPSTLSASVGDRVTVTCRASQSIYIWLAWYQQKPGKAPNLLIYKASSLETGVPSRFSGSGSGTEFTLTISSLQPDDFATYYCQQYYGSSRTFGQGTKVEIKR

- EC50 [9]: 0.73 nM
- Maximum MFI [9]: 8090 MFI
- IC50 [10]: 0.42 nM
- Maximum inhibition rate (%) [10]: 81.4%
- EC50 [11]: 16.3 nM
- Maximum MFI [11]: 1410 MFI
- EC50 [12]: 20.5 nM
- Maximum MFI [12]: 343 MFI
B4: PR000403 (bispecific antibody, human IgG1, kappa, L234A L235A)
chain 1: EVQLVESGGGLVQPGGSLRLSCAASGFTFSSYWMSWVRQAPGKGLEWVANIKQEGSEKYYVDSVKGRFTISRDNAKNSLYLQMNSLRAEDTAVYYCARDRAVAGAFDIWGQGTMVTVSSASTKGPSVFPLAPSSKSTSGGTAALGCLVKDYFPEPVTVSWNSGALTSGVHTFPAVLQSSGLYSLSSVVTVPSSSLGTQTYICNVNHKPSNTKVDKKVEPKSC
chain 2: DIQMTQSPSTLSASVGDRVTVTCRASQSIYIWLAWYQQKPGKAPNLLIYKASSLETGVPSRFSGSGSGTEFTLTISSLQPDDFATYYCQQYYGSSRTFGQGTKVEIKRTVAAPSVFIFPPSDEQLKSGTASVVCLLNNFYPREAKVQWKVDNALQSGNSQESVTEQDSKDSTYSLSSTLTLSKADYEKHKVYACEVTHQGLSSPVTKSFNRGECEVQLVESGGGLIQPGGSLRLSCAVSGFTVSKNYMSWVRQAPGKGLEWVSVVYSGGSKTYADSVKGRFTISRDNSKNTLYLQMNSLRAEDTAVYYCARAVPHSPSSFDIWGQGTMVTVSSEPKSCDKTHTCPPCPAPEAAGGPSVFLFPPKPKDTLMISRTPEVTCVVVDVSHEDPEVKFNWYVDGVEVHNAKTKPREEQYNSTYRVVSVLTVLHQDWLNGKEYKCKVSNKALGAPIEKTISKAKGQPREPQVYTLPPSREEMTKNQVSLTCLVKGFYPSDIAVEWESNGQPENNYKTTPPVLDSDGSFFLYSKLTVDKSRWQQGNVFSCSVMHEALHNHYTQKSLSLSPGK
notes: PD-L1×CTLA4, structure 1 Fab(CL)-VH-Fc

B5: PR000701, PD-L1×4-1BB bispecific antibody molecule of FIT-Ig structure (bispecific antibody, human IgG4 S228P, kappa)
chain 1: not shown
chain 2: EVQLVESGGGLVQPGGSLRLSCAASGFTFSSYWMSWVRQAPGKGLEWVANIKQEGSEKYYVDSVKGRFTISRDNAKNSLYLQMNSLRAEDTAVYYCARDRAVAGAFDIWGQGTMVTVSSASTKGPSVFPLAPSSKSTSGGTAALGCLVKDYFPEPVTVSWNSGALTSGVHTFPAVLQSSGLYSLSSVVTVPSSSLGTQTYICNVNHKPSNTKVDKKVEPKSC
chain 3: not shown
notes: FIT-Ig; Fab A of PR000265 (PD-L1), Fab B of PR000197 (4-1BB) close to Fc; no linker; human IgG4
- EC50 [1]: 10.2 nM
- Maximum MFI [1]: 1340 MFI
- EC50 [2]: 1.72 nM
- Maximum MFI [2]: 1710 MFI

- EC50 [9]: 0.78 nM
- Maximum MFI [9]: 8100 MFI
- IC50 [10]: 0.6 nM
- Maximum inhibition rate (%) [10]: 81.1%
- EC50 [11]: 37.2 nM
- Maximum MFI [11]: 1620 MFI
- EC50 [12]: 26.9 nM
- Maximum MFI [12]: 339 MFI
B6: PR000404 (bispecific antibody, human IgG1, kappa)
chain 1: EVQLVESGGGLVQPGGSLRLSCAASGFTFSSYWMSWVRQAPGKGLEWVANIKQEGSEKYYVDSVKGRFTISRDNAKNSLYLQMNSLRAEDTAVYYCARDRAVAGAFDIWGQGTMVTVSSASTKGPSVFPLAPSSKSTSGGTAALGCLVKDYFPEPVTVSWNSGALTSGVHTFPAVLQSSGLYSLSSVVTVPSSSLGTQTYICNVNHKPSNTKVDKKVEPKSC
chain 2: not shown
notes: PD-L1×CTLA4, structure 1

- EC50 (human BCMA [3]): 0.188 nM
- Maximum MFI (human BCMA [3]): 99300
- Maximum MFI (cynomolgus monkey BCMA): 115000
- EC50 (human BCMA [5]): 1.23 nM
- Maximum MFI (human BCMA [5]): 15600
B7: PR003178 (bispecific antibody, human IgG1, lambda, L234A L235A)
light: QAVVTQEPSLTVSPGGTVTLTCRSSTGAVTTSNYANWVQQKPGQAPRGLIGGTNKRAPWTPARFSGSLLGDKAALTLLGAQPEDEAEYFCALWYSNLWVFGGGTKLTVLGQPKAAPSVTLFPPSSEELQANKATLVCLISDFYPGAVTVAWKADSSPVKAGVETTTPSKQSNNKYAASSYLSLTPEQWKSHRSYSCQVTHEGSTVEKTVAPTECS
heavy: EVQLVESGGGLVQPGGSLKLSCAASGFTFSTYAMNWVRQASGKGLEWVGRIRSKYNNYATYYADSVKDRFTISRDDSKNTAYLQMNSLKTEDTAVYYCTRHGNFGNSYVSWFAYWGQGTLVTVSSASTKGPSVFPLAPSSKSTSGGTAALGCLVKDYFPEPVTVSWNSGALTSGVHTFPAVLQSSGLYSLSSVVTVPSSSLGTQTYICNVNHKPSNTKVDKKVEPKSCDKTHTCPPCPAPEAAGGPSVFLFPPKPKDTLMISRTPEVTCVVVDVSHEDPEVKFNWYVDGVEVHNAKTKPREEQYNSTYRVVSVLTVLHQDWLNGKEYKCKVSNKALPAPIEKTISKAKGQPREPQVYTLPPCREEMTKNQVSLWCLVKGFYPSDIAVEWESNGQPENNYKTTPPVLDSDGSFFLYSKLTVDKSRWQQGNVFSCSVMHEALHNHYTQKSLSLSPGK
chain: EVQLVETGGGLIQPGGSLRLSCAASGFTVSDNYMTWVRQAPGKGLEWVSVIFSGGNTYYADSVKGRFTISRDNAKNTLYLQMNSLRAEDTALYYCARRNYDDTRGTDVFDIWGQGTMVTVSSGGGGSGGGGSGGGGSEVQLVETGGGLIQPGGSLRLSCAASGFTVSDNYMTWVRQAPGKGLEWVSVIFSGGNTYYADSVKGRFTISRDNAKNTLYLQMNSLRAEDTALYYCARRNYDDTRGTDVFDIWGQGTMVTVSSASEPKSSDKTHTCPPCPAPEAAGGPSVFLFPPKPKDTLMISRTPEVTCVVVDVSHEDPEVKFNWYVDGVEVHNAKTKPREEQYNSTYRVVSVLTVLHQDWLNGKEYKCKVSNKALPAPIEKTISKAKGQPREPQVCTLPPSREEMTKNQVSLSCAVKGFYPSDIAVEWESNGQPENNYKTTPPVLDSDGSFFLVSKLTVDKSRWQQGNVFSCSVMHEALHNHYTQKSLSLSPGK
